Changes are numbered by the printed parent chain.
B1: B1-4 (ssDNA)
DNA: CCGCCCAAATCCCTAAGAGAAGACTGTAATGACATCAAACCAGACACACTACACACGCA
B2: M2-6 (ssDNA)
DNA: B1 DNA with A18G, C49T
B3: M5-5 (ssDNA)
DNA: B1 DNA with T14G, A18G, C24G, A34G, C49T
B4: M3-6 (ssDNA)
DNA: B1 DNA with A18T, T27G, A44T
B5: M4-10 (ssDNA)
DNA: B1 DNA with A18T, T27G, A29T, A44T
B6: M1-8 (ssDNA)
DNA: B1 DNA with A18G

These binders were tested against interferon-gamma (IFN-γ) (Homo sapiens, UniProt P01579 24-161) (assay: BLI; PBS pH 7.4, 25 °C; BLI on SA sensors with 500 nM biotinylated aptamer loaded, IFN-γ 125-2000 nM; fluorescence assay in PBS, 250 nM M5-5, MB 1:3, 30 min at 25 °C). Settings: protein: commercial; chain copies: 2; label: biotin (BLI).
Chain of interferon-gamma (IFN-γ) (P01579 24-161): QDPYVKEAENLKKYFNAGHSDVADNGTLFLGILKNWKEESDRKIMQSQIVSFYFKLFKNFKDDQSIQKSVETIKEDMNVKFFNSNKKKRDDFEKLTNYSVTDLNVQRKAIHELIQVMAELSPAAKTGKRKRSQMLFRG
For B1, the Kd was 914 nM.
Binder B2 has a Kd of 482 nM.
B3 gave a Kd of 106 nM.
For B4, the Kd was 267 nM.
For B5, the Kd was 277 nM.
Binder B6 has a Kd of 440 nM.

— PMC9457990, “Evolution of Interferon-Gamma Aptamer with Good Affinity and Analytical Utility by a Rational In Silico Base Mutagenesis Post-SELEX Strategy”
